In patent publication US20230037911A1 (SHANGHAI HENLIUS BIOTECH, published 2023):

T1: recombinant human TIGIT extra cellular domain (ECD) protein (human, UniProt Q495A1 22-138)
T1 construct: Purchased protein; it begins with the signal peptide; also called h-TIGIT ECD; human TIGIT ECD
T1 sequence: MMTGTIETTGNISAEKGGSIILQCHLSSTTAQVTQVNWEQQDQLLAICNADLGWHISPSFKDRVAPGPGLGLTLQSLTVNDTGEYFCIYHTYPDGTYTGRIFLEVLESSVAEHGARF

T2: human TIGIT stably expressed on cells (Jurkat; 293T) (human, UniProt Q495A1 22-244)
T2 construct: the expression vector's insert is not described further; also called h-TIGIT; human TIGIT transfected Jurkat cells
T2 sequence: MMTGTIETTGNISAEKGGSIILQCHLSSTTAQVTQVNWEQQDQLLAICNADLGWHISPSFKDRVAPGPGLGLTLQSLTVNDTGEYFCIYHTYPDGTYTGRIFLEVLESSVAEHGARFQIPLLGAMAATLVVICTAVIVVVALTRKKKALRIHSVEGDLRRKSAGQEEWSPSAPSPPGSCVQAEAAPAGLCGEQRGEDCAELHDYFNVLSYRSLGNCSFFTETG


Key:
[1] = molecular target: T1, recombinant human TIGIT extra cellular …; assay: PVR blocking ELISA (PVR binding to h-TIGIT blocked by the clone); scatter of IC50 against EC50, nM per the legend
[2] = molecular target: T2, human TIGIT stably expressed on cells …; assay: whole cell binding on TIGIT stable cells (species not named in the legend, taken as human); scatter of EC50 against IC50, nM per the legend
[3] = molecular target: T1, recombinant human TIGIT extra cellular …; assay: ELISA, VHH in supernatant on h-TIGIT ECD coated plates
[4] = molecular target: T1, recombinant human TIGIT extra cellular …; assay: blocking ELISA, PVR as competitor

| binding result [1] | binding result [2] | binding result [3] | inhibition of PVR binding to h-TIGIT [4] [%] | Binder |
| --- | --- | --- | --- | --- |
| binds | binds | – | – | 2C5 VHH (VHH, VHH in bacterial supernatant) VHH: QVQLVESGGGVVQPGRSLRLSCAASGPSFSTYPMGWFRQAPGKERESVAAISSQGRFTYYADSVKGRFTISRDNSKNTLYLQMNSLRAEDTAVYYCAARDSGSGYYSRAQWYDYWGQGTLVTVSS |
| binds | binds | – | – | 2A6 VHH (VHH, VHH in bacterial supernatant) VHH: QVQLVESGGGVVQPGRSLRLSCAASGPSFSLYPMGWFRQAPGKERESVAAISSDRRFTYYADSVKGRFTISRDNSKNTLYLQMNSLRAEDTAVYYCAARDSGSGYYSRAQWYDYWGQGTLVTVSS |
| – | – | binds | – | 4D11 VHH (VHH, VHH in bacterial supernatant) VHH: QVQLQESGGGLVQPGGSLRLSCAASGSISSINAMGWYRLAPGKHREFVADITNSGSTNYAASVKGRFNISRDNAKDTVYLQMNSLKFEDTAVYYCTARRSTWYISSGRGTQVTVSS |
| – | – | binds | – | 4E5 VHH (VHH, VHH in bacterial supernatant) VHH: QVQLVDSGGGVVEVGASLTLSCETSGLTSSDIAVGWFRQGPGKERESVAAISSDGRFTYYAASVKGRFTISKDNAKSAAFLQMNSLKPEDTAVYYCAARDSGSGYYSRAQWYDYWGQGTQVTVSS |
| – | – | binds | – | 4H6 VHH (VHH, VHH in bacterial supernatant) VHH: QVQLVESGGGLATAGASLILSCAASGTIFRLNRMGWFRQAPGKERERVAATIWSGRRTHYADSVKGRFTISTDNAKKTVYLRMSSLKPEDTAVYYCNYRRITPWEASGNYWGQGTQVTVSS |
| – | – | binds | – | 4C5 VHH (VHH, VHH in bacterial supernatant) VHH: QVQLVDSGGGLVQAGGSLRLSCAVSGRSVSTYFVGWFRQAPGKEREFVAAIDRGSTVTRYDDSVKGRFTISRDNAKDTVYLQMNSLKPEDTAVYYCAAKAITRNFIATNDYDYWGQGTQVTVSS |
| – | – | binds | – | 12H7 VHH (VHH, VHH in bacterial supernatant) VHH: QVQLVDSGGGLVQAGGSLRLSCKVSGNFLSVSDMSWYRQAPGMERDVVATVTEHGRTTYTDSVKGRFTISRDNAEHTTYLEMNNLKPEDTAVYFCKASDVFTDAGAHEAVLIRDYWGQGTQVTVSS |
| – | – | binds | – | 4H9 VHH (VHH, VHH in bacterial supernatant) VHH: QVQLVESGGGAVQAGGSLRLSCTASGPIARSRSTGMGWFRQGPGKERESVAAISSDGRFTYYAASVKGRFTISKDNAKSAAFLQMNSLKPEDTAVYYCAARDSGSGYYSRAQWYDYWGQGTQVTVSS |
| – | – | binds | – | 3H7 VHH (VHH, VHH in bacterial supernatant) VHH: QVKLEESGGGLVQAGGSLRLSCAASGSILSAGVMRWYRQAPGKQRELVASIALDGSTGYYIDSVKGRFTISRDNAKNIVYLDMRSLEPADTAVYLCNANIRTDMRSAPFDHWGHGTQVTVSS |
| – | – | binds | – | 4C6 VHH (VHH, VHH in bacterial supernatant) VHH: QVQLVESGGGLVQAGGSLRLACAASGRTFSSYPMGWFRQGPGKERESVAAISSDGRFTYYAASVKGRFTISKDNAKSAAFLQMNSLKPEDTAVYRCAVDPTGWGTIEADFRSWGQGTQVTVSS |
| – | – | binds | – | 4B5 VHH (VHH, VHH in bacterial supernatant) VHH: QVKLEESGGRSVLAGGSLRLRCAGTPRTFSTFHIGWFRQAPGKEREFVAAFNWSGGRTYYADSVKGRFTISRNNGKNMVYLQMTSLTPEDTGLYYCAAARDRGLHDGTTSDSYLEGSHEYEYWGQGTQVTVSS |
| – | – | binds | – | 4D5 VHH (VHH, VHH in bacterial supernatant) VHH: VDSGGGAVKAGDSLRLVCSAPGRTHGRAFNEYAMAWFRQGPGKERESVAAISSDGRFTYYAASVKGRFTISKDNAKSAAFLQMNSLKPEDTAVYYCAARDSGSGYYSRAQWYDYWGQGTQVTVSS |

Continued, binder first:

| Binder | binding result [1] | binding result [2] | binding result [3] | inhibition of PVR binding to h-TIGIT [4] [%] |
| --- | --- | --- | --- | --- |
| 1A10 VHH (VHH, VHH in bacterial supernatant) VHH: QVQLVESGGGVVQPGRSLRLSCAASGNSFSSYPMGWFRQAPGKERESVAAISSDGRFSYYADSVKGRFTISRDNSKNTLYLQMNSLRAEDTAVYYCACRDSGSGYYSRAQWYDYWGQGTLVTVSS | binds | binds | – | – |
| 5E8 VHH (VHH, VHH in bacterial supernatant) VHH: QVQLVESGGGVVQPGRSLRLSCAASGPSFSSYPMGWFRQAPGKERESVAAQSSDGRFTYYADSVKGRFTISRDNSKNTLYLQMNSLRAEDTAVYYCAARDSGSGYYSRAQWYDYWGQGTLVTVSS | binds | binds | – | – |
| 2D5 VHH (VHH, VHH in bacterial supernatant) VHH: QVQLVESGGGVVQPGRSLRLSCAASGPSFSSSPMGWFRQAPGKERESVAAISWDGRFTYYADSVKGRFTISRDNSKNTLYLQMNSLRAEDTAVYYCAARDSGSGYYSRAQWYVYWGQGTLVTVSS | binds | binds | – | – |
| 5B5 VHH (VHH, VHH in bacterial supernatant) VHH: QVQLVESGGGVVQPGRSLRLSCAASGPSFSSYPMGWFRQAPGKERESVAAISSDTRFTYYADSVKGRFTISRDNSKNTLYLQMNSLRAEDTAVYYCAARDSGSGYYSRAQWYDRWGQGTLVTVSS | binds | binds | – | – |
| 1D11 VHH (VHH, VHH in bacterial supernatant) VHH: QVQLVESGGGVVQPGRSLRLSCAASGPSFSSSPMGWFRQAPGKERESVAAISSMGRFTYYADSVKGRFTISRDNSKNTLYLQMNSLRAEDTAVYYCAARDSGSGYYSRAQWYDYWGQGTLVTVSS | binds | binds | – | – |
| 6B11 VHH (VHH, VHH in bacterial supernatant) VHH: QVQLVESGGGVVQPGRSLRLSCAASGPSFPSYPMGWFRQAPGKERESVAAISSRGRFTYYADSVKGRFTISRDNSKNTLYLQMNSLRAEDTAVYYCAARDSGSGYYSRLQWYDYWGQGTLVTVSS | binds | binds | – | – |
| 7B11 VHH (VHH, VHH in bacterial supernatant) VHH: QVQLVESGGGVVQPGRSLRLSCAASGPSFLIYPMGWFRQAPGKERESVAAISSDGRFWYYADSVKGRFTISRDNSKNTLYLQMNSLRAEDTAVYYCAARDSGSGYYSRVQWYDYWGQGTLVTVSS | binds | binds | – | – |
| 6D8 VHH (VHH, VHH in bacterial supernatant) VHH: QVQLVESGGGVVQPGRSLRLSCAASGPSFSSKPMGWFRQAPGKERESVAARSSDGRFTYYADSVKGRFTISRDNSKNTLYLQMNSLRAEDTAVYYCAARDSGSGRYSRAQWYDYWGQGTLVTVSS | binds | binds | – | – |
| 6E9 VHH (VHH, VHH in bacterial supernatant) VHH: QVQLVESGGGVVQPGRSLRLSCAASGPSRSSYPMGWFRQAPGKERESVAAISSDGKFTYYADSVKGRFTISRDNSKNTLYLQMNSLRAEDTAVYYCAARDSGSGYYSRANWYDYWGQGTLVTVSS | binds | binds | – | – |
| 6D12 VHH (VHH, VHH in bacterial supernatant) VHH: QVQLVESGGGVVQPGRSLRLSCAASGPSFSTYPMGWFRQAPGKERESVAAISSDGVFTYYADSVKGRFTISRDNSKNTLYLQMNSLRAEDTAVYYCAARDSGSGYYSREQWYDYWGQGTLVTVSS | binds | binds | – | – |
| 5G10 VHH (VHH, VHH in bacterial supernatant) VHH: QVQLVESGGGVVQPGRSLRLSCAASGPRFSSYPMGWFRQAPGKERESVAAISSDGRFTYYADSVKGRFTISRDNSKNTLYLQMNSLRAEDTAVYYCAARDSGSGYYSRAQWYDGWGQGTLVTVSS | binds | binds | – | – |
| 1C7 VHH (VHH, VHH in bacterial supernatant) VHH: QVQLVESGGGVVQPGRSLRLSCAASGPSFSSYPMGWFRQAPGKERESVAAISSRGRFTYYADSVKGRFTISRDNSKNTLYLQMNSLRAEDTAVYYCAARGSGSGYYSRAQWYDYWGQGTLVTVSS | binds | binds | – | – |
| 2A5 VHH (VHH, VHH in bacterial supernatant) VHH: QVQLVESGGGVVQPGRSLRLSCAASGPSFSSYPMGWFRQAPGKERESVAAISSVGRFTYYADSVKGRFTISRDNSKNTLYLQMNSLRAEDTAVYYCAARDSGSGYYSRWQWYDYWGQGTLVTVSS | binds | binds | – | – |
| 4A11 VHH (VHH, VHH in bacterial supernatant) VHH: QVKLEESGGGEAQPGGSLRLSCTASGRPFSNYTMGWFRRAPGKEREFVGLAWPSPSTYVVDSVKGRFTISRDNAKNTIYLQMNSLKPEDTAIYYCAADYKSLTQSWLNAALDYWGQGTQVTVSS | – | – | binds | – |
| 3G7 VHH (VHH, VHH in bacterial supernatant) VHH: QVQLVESGGGLVQAGDSLRLSCEASGRTLSTYTMGWFRRAPGKEREFVGLAWPSPSTYVVDSVKGRFTISRDNAKNTIYLQMNSLKPEDTAIYYCAADYKSLTQSWLNAALDYWGQGTQVTVSS | – | – | – | > 90 |
